Two molecules from patent publication CN118063606A (JIANGXI SAIJI BIOTECHNOLOGY CO LTD; HANGZHOU SAIJI …, dated 2024) can be followed below.

Assay [1] addresses 重组人THSD7A蛋白 (recombinant human THSD7A protein) (human) (UniProt Q9UPZ6). Nature of the assay: indirect ELISA on coated THSD7A, serum standard read on the rhA3 standard curve.
Assay [2] has the same target. Nature of the assay: indirect ELISA on coated THSD7A, value read from the curve of the anti-THSD7A human serum standard. (An ELISA detects its analyte on a solid surface through an enzyme-linked reagent.)
For assay [3] the target is unchanged. As to the kind of experiment: indirect ELISA on coated THSD7A, against the anti-THSD7A human serum standard.
Assay [4] has as its target T1, 重组人THSD7A蛋白 (recombinant human THSD7A protein) (human, UniProt Q9UPZ6 48-1606).
T1 construct: Expressed by transient transfection of 293T cells; no tag is mentioned; also called hTHSD7A; 人源THSD7A
Nature of the assay: phage ELISA / ELISA of supernatants on the antigen, then chemiluminescence immunoassay of purified antibody.

T1 sequence (Q9UPZ6 48-1606 limits assumed): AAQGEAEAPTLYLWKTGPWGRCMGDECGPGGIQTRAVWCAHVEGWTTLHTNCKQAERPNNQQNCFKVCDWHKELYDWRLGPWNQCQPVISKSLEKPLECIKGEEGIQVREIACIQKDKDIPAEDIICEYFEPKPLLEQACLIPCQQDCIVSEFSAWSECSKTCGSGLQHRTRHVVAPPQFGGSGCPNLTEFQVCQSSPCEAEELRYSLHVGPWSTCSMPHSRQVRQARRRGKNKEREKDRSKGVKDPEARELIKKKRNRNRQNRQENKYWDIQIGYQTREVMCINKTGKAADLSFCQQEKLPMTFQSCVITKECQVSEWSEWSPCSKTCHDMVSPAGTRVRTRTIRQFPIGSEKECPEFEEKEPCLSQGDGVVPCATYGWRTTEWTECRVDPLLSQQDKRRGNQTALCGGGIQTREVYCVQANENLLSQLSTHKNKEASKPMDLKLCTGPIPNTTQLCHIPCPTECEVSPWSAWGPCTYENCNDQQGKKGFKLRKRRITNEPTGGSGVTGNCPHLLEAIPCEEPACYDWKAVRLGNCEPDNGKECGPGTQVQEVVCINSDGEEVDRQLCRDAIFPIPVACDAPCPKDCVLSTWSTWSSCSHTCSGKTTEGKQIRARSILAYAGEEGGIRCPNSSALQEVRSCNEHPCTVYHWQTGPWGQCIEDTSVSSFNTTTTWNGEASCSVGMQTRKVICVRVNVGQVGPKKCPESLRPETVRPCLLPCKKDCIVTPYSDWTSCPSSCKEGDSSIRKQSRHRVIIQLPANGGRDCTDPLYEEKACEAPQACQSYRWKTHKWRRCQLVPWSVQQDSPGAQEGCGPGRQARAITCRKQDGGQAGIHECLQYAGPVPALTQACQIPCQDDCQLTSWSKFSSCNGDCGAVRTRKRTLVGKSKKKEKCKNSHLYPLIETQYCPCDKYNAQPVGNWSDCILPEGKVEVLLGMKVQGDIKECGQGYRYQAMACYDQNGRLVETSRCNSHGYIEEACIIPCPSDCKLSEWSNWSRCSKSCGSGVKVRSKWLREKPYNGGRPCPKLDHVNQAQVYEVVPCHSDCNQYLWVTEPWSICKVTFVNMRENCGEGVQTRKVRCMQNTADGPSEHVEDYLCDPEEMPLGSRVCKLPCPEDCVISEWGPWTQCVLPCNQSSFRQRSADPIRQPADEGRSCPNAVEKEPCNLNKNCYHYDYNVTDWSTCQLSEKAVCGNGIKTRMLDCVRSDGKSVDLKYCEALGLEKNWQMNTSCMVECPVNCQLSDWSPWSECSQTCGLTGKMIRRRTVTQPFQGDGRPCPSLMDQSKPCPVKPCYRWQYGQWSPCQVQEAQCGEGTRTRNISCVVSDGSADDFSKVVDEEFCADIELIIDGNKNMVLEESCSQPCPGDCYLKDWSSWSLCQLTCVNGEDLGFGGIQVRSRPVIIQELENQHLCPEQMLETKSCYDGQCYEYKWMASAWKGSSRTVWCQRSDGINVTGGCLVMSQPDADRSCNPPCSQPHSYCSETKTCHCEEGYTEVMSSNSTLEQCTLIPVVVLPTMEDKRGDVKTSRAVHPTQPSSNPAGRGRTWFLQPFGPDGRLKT

B1: 嵌合单抗rhA3 (重组嵌合抗体A3单抗) (antibody, human IgG4 S228P, kappa, V domains shown)
VH: QSVKESGGRLVTPGGTLTLTCTVSGFSLSTYYMSWVRQAPGKGLEWIGSIESYGDRYYATWAKGRFTISKTSSTTVDLKMTSLTASDTATYFCTRNDLSWDNDNIWGPGTLVTVSS
VL: DVQMTQTPSSVSVSVGGTVTINCQASQSVYGNNELNWYQQKSGQPPKLLIYKAGTLASGVPSRFSGSGSGTQFTLTISDLECDDAAIYYCQGGYWGQRAFGGGTKLEIKR
For the molecule B1, in assay [1], the 比活 (serum standard 12U/mL on rhA3 curve) was 3.01 U/ng, the 比活 (serum standard 60U/mL on rhA3 curve) is 2.97 U/ng and the 比活 (serum standard 300U/mL on rhA3 curve) worked out at 2.97 U/ng. For the same molecule, in assay [2], the THSD7A抗体浓度 (read from serum standard curve) at 4ng/mL rhA3 stood at 12 U/mL, the THSD7A抗体浓度 (read from serum standard curve) at 20ng/mL rhA3 stood at 60.5 U/mL and the THSD7A抗体浓度 (read from serum standard curve) at 100ng/mL rhA3 came to 305 U/mL. Further, in assay [3], the THSD7A抗体活性 per ng stood at 3 U/ng, the 比活 at 4ng/mL rhA3 was determined as 3.01 U/ng, the 比活 at 20ng/mL rhA3 is 2.99 U/ng and the 比活 at 100ng/mL rhA3 worked out at 3.05 U/ng.

B2: 小鼠抗THSD7A单抗A3 (antibody, V domains shown)
VH: B1 VH
VL: DVQMTQTPSSVSVSVGGTVTINCQASQSVYGNNELNWYQQKSGQPPKLLIYKAGTLASGVPSRFSGSGSGTQFTLTISDLECDDAAIYYCQGGYWGQRAFGGGTKLEIK
notes: Selected from a phage scFv library of immunised mice; variable regions cloned into a eukaryotic expression vector and expressed in 293T cells
Turning to B2, in assay [4], the binding result is “binds”.
